The record followed here is EP4703388A1 (Jiangsu Hengrui Pharmaceuticals Co., Ltd., dated 2024).

The chains are these.
T1: cyno TF ECD-His (cTF-his) (monkey (cyno))
T1 construct: also called bio-cTF-his; monkey TF-His protein
T1 chain: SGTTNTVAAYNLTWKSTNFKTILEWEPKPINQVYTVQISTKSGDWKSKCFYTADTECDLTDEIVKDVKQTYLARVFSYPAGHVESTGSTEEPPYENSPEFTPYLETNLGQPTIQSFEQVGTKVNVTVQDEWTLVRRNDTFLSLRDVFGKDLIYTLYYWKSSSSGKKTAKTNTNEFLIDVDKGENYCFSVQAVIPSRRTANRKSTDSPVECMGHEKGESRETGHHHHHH

T2: mouse TF ECD-His (mouse, UniProt P20352 29-251)
T2 construct: also called Mouse TF-His protein; mouse TF antigen protein
T2 sequence: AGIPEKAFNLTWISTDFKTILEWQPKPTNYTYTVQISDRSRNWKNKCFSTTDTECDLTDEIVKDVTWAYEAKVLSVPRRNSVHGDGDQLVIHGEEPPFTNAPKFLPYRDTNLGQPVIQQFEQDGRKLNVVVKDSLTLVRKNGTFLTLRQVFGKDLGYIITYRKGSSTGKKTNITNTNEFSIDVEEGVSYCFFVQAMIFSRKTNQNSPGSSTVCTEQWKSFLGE

T3: rat TF ECD-His (rat, UniProt P42533 29-252)
T3 construct: also called rat TF-His protein; rat TF antigen protein
T3 sequence: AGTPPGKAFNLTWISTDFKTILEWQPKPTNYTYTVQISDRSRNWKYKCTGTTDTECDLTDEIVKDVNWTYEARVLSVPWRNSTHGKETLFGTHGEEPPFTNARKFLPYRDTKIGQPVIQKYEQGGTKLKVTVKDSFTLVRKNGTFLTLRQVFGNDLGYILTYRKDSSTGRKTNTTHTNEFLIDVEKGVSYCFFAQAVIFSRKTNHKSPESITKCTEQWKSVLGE

T4: HuRatTF, human-rat hybrid TF antigen (human-rat hybrid)
T4 construct: also called HuRatTF protein; human-rat hybrid TF protein
T4 chain: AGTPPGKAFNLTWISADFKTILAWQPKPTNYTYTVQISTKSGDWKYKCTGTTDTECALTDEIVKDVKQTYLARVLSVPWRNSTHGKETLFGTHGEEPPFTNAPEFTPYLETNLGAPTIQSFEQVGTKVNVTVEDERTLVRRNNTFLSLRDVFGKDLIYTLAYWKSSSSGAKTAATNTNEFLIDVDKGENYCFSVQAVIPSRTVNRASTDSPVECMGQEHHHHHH

B1: hu310-2 (antibody, human IgG1, kappa, V domains shown)
VH: EVQLVQSGAEVKKPGASVKVSCKASGYSFTGYYMNWVRQAPGQGLEWMGEINPSTGGSTYNQKFKARVTMTVDQSTSTVYMELSSLRSEDTAVYYCARRELGGPFGYWGQGTTVTVSS
VL: SIVMTQSPDSLAVSLGERATINCKASQSVSNGIAWYQQKPGQSPKLLIYFASNRYTGVPDRFSGSGYGTDFTLTISSLQAEDVAVYYCQQDYSSPWTFGGGTKVEIKR
B2: hu10H10-77 (antibody, V domains shown)
VH: EVQLVQSGSELKKPGASVKVSCKASGYTFITYWIEWVKQRPGQGLEWMGDILPYSGSTNYNENFKGRATFSADTSVSTAYLQISSLKAEDTAVYYCARSGYYGNSGFAYWGQGTLVTVSS
VL: DIQMTQSPSSLSASVGDRVTITCQSSQSLLSSGNQKNYLTWYQQKPGKAPKLLIYWASTRESGVPSRFSGSGSGTDFTLTISSLQPEDFATYYCQNDYTYPLTFGQGTKLEIK
notes: H11+L9; Full-length IgG
B3: hu67Y116 (antibody, human IgG1, kappa, V domains shown)
VH: EVQLQESGPGLVKPSQTLSLTCTVSGFSLTNYGVNWIRQSPGKGLEWIGVIWSRGNTDYNAAFKSRVTISKDTSKNQVSLKLSSVTAADTAVYYCARKDAIVATDALDYWGQGTTVTVSS
VL: DIQMTQSPSSLSASVGDRVTITCKASQDVQTAVAWYQQKPGKAPKLLIYSTHYRYTGVPSRFSGSGSGTDFTFTISSLQPEDIATYYCLQSYTLPFSFGGGTKVEIKR

The target in one assay is T1, cyno TF ECD-His (cTF-his). Kind of assay: ELISA, antibody captured by anti-human IgG, biotinylated TF-his titrated.
For B1, the response was half-maximal at 0.041 µg/mL (EC50) and the Emax is 0.92.
Taken in the same sequence, the figures for B2 were 0.0027 µg/mL and 1.13.
Consider B3, for which the EC50 (in general, the concentration that produces a half-maximal response) came to 0.0691 µg/mL and the Emax was determined as 1.17.

The next assay deals with T5, human TF ECD-His (hTF-his) (human, UniProt P13726 33-251).
T5 construct: also called bio-hTF-his; human TF-His protein
The assay is described as above.
In turn, B1 returned a concentration giving a half-maximal response (EC50) of 0.0529 µg/mL and an Emax of 0.92.
B2: the EC50 came to 0.0035 µg/mL and the Emax worked out at 1.
Molecule B3 gave an EC50 of 0.103 µg/mL and an Emax of 0.89.

The next assay deals with T2, mouse TF ECD-His. Kind of assay: ELISA, TF-His coated at 4 µg/mL, antibody titrated. On the technique in general: An ELISA detects its analyte on a solid surface through an enzyme-linked reagent.
B1: the binding result was “no binding”.
The same measure, in the same setting: under B2 stands “no binding”; under B3, “no binding”.

For a further assay, the target named is T3, rat TF ECD-His. Kind of assay: ELISA, TF-His coated at 4 µg/mL, antibody titrated.
Regarding B1, the binding result is “no binding”.
Take B2: the binding result is reported as “no binding”.
Still for that read-out and setting: in the case of B3 it was “no binding”.

For a further assay, the target named is T1, cyno TF ECD-His (cTF-his). Kind of assay: SPR Biacore T200, antibody on Protein A chip, TF-His as analyte, 1:1 model.
For B1, the dissociation constant (Kd) (commonly the concentration at which binding is half-saturated) stood at 19.2 nM; the koff (commonly the first-order rate constant of dissociation) turned out to be 0.00637 s⁻¹; the kon (as a rule, the rate constant with which the complex forms) was 332000 M⁻¹ s⁻¹.
B2 gave a Kd of 0.677 nM, a koff of 0.000114 s⁻¹ and a kon of 169000 M⁻¹ s⁻¹.
For the molecule B3, binding was characterised by a dissociation constant (Kd) of 27.1 nM, the koff amounted to 0.000947 s⁻¹ and the association rate constant (kon) stood at 35000 M⁻¹ s⁻¹.

Another assay addresses T5, human TF ECD-His (hTF-his). The assay is described as above.
Molecule B1 came in with a Kd of 18.5 nM, a koff of 0.00699 s⁻¹ and a kon of 378000 M⁻¹ s⁻¹.
Consider B2, for which binding was put at a Kd of 0.749 nM, the koff was 0.00011 s⁻¹ and the kon amounted to 146000 M⁻¹ s⁻¹.
B3 came in with a Kd of 39.4 nM, a koff of 0.00263 s⁻¹ and a kon of 66700 M⁻¹ s⁻¹.

Another assay concerns the target T4, HuRatTF, human-rat hybrid TF antigen. As to the kind of experiment: ELISA, HuRatTF coated, antibody titrated.
In the case of B1, a half-maximal response (EC50) required 2.13 nM and the “Maximum (OD450 nm)” value came to 0.428 OD450 nm.
As for B2, the EC50 came to 2 nM and the “Maximum (OD450 nm)” value is 1.39 OD450 nm.
As to B3, the EC50 came to 53.4 nM and the “Maximum (OD450 nm)” value was 0.292 OD450 nm.

A further assay concerns the target T6, human tissue factor (TF) on MDA-MB-231, NCI-H358 and HCT116 cells (human, UniProt P13726 33-295). As to the kind of experiment: cell-based or functional assay.
In the case of B1, the “EC50 (nM), IL8 assay (IL-8 of MDA-MB-231 cells after antibody and FVIIa)” value (shortened to “EC50 (nM), IL8 assay”) was found to be 0.407 nM.
Consider B2, for which the “EC50 (nM), IL8 assay” value was 0.412 nM.
As for B3, the “EC50 (nM), IL8 assay” value worked out at 1.57 nM.

A further assay concerns the target T6, human tissue factor (TF) on MDA-MB-231, …. As to the kind of experiment: flow cytometry on MDA-MB-231 cells. (In general: In flow cytometry, cells or beads pass a laser one at a time.)
Turning to B1, the EC50 is 1.32 nM.
B2 displayed an EC50 of 1.64 nM.
Same read-out and setting: in the case of B3 it was 4.91 nM.

The target is the same in a further assay. Kind of assay: flow cytometry on H358 cells.
The molecule B1 had an EC50 of 0.67 nM.
Take B2: the EC50 was 0.68 nM.
In turn, B3 had an EC50 of 5.42 nM.

A further assay shares this target. Kind of assay: flow cytometry on HCT116 cells.
In the case of B1, the EC50 was 0.34 nM.
Still for that read-out and setting: under B2 stands 0.47 nM.
B3 registered an EC50 of 1.66 nM.

For another assay the target is unchanged. As to the kind of experiment: cell-based or functional assay. The source holds these as a separate data set.
In the case of B1, the “Inhibition rate (%), Factor-VII-Human Chromogenic-Activity blood coagulation pathway assay (FVIIa, MDA-MB-231 cells, FX; antibody 20 µg/mL)” value was -2.8%.
Still for that read-out and setting: under B2 stands -1.8%; under B3, 4%.
